Positions count from the first letter of the chain named. Names may count otherwise.
T1: EsCas13d, nuclease-dead (Eubacterium siraeum, UniProt B0MS50, R295A;H300A;R849A;H854A)
T1 sequence: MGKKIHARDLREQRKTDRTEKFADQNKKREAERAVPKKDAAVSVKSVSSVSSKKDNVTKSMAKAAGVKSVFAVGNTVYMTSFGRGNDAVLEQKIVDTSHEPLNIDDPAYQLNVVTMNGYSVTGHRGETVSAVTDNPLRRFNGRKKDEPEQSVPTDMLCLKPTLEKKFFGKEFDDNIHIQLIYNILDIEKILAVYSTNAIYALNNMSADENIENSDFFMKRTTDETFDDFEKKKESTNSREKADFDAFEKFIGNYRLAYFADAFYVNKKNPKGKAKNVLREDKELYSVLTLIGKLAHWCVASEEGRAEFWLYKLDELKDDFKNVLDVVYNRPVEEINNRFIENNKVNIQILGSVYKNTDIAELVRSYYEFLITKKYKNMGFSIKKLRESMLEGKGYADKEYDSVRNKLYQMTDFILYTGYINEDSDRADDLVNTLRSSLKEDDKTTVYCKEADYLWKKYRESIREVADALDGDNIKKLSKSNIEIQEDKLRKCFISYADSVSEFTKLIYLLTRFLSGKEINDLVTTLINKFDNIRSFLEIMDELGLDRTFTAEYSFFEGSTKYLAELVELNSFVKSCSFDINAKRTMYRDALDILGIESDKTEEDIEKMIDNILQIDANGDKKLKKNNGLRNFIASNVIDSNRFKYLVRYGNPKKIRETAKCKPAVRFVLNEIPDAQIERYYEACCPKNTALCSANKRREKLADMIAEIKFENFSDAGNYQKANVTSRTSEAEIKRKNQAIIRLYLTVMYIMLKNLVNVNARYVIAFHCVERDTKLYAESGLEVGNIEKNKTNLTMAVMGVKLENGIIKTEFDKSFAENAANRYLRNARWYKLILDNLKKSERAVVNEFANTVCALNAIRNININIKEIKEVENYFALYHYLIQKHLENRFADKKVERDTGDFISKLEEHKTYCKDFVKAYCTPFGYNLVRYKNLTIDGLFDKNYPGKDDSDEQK

B1: target 1 insU 3' of 15,insA 3' of 3 (mixed)
RNA 1: CACCCGUGCAAAAAUGCAGGGGUCUAAAACUGAGCGGAUAACCUCUCUAUGG
RNA 2: GGGAAUGGAUCCACAUCUACGAAUUCGUACCAUAGAGUAGGUUAUCCGCUACACCGAGAUCGGAAGAGCACACGU
B2: target 1 insG 3' of 20,insC 3' of 9 (mixed)
RNA 1: B1 RNA 1
RNA 2: GGGAAUGGAUCCACAUCUACGAAUUCGUACCAGUAGAGAGGUUACUCCGCUCACCGAGAUCGGAAGAGCACACGU
B3: target 1 insC 3' of 19,insC 3' of 3 (mixed)
RNA 1: B1 RNA 1
RNA 2: B1 RNA 2 with A34C, G35A, A36G, G37A, U38G, A51C
B4: target 1 insG 3' of 9,insU 3' of 6 (mixed)
RNA 1: B1 RNA 1
RNA 2: B1 RNA 2 with U38A, A39G, G41U, U43A, A44G, G48U, C49G, U50C, A51U
B5: target 1 C2U,U11C (mixed)
RNA 1: B1 RNA 1
RNA 2: GGGAAUGGAUCCACAUCUACGAAUUCGUACCAUAGAGAGGCUAUCCGCUUACCGAGAUCGGAAGAGCACACGU
B6: target 1 complement block 8-12 (mixed)
RNA 1: B1 RNA 1
RNA 2: B5 RNA 2 with G40C, C41A, U42A, A43U, U44A, U50C
B7: target 1 insC 3' of 14,insA 3' of 13 (mixed)
RNA 1: B1 RNA 1
RNA 2: GGGAAUGGAUCCACAUCUACGAAUUCGUACCAUAGAGACGAGUUAUCCGCUCACCGAGAUCGGAAGAGCACACGU
B8: target 1 insG 3' of 9,insG 3' of 3 (mixed)
RNA 1: B1 RNA 1
RNA 2: B1 RNA 2 with U38A, A39G, G41U, U43A, A44G, A51G
B9: target 1 A1G,U11C (mixed)
RNA 1: B1 RNA 1
RNA 2: B5 RNA 2 with U50C, A51G
B10: target 1 insU 3' of 5,insU 3' of 1 (mixed)
RNA 1: B1 RNA 1
RNA 2: GGGAAUGGAUCCACAUCUACGAAUUCGUACCAUAGAGAGGUUAUCCGUCUCAUCCGAGAUCGGAAGAGCACACGU
B11: target 1 A9C,C22A (mixed)
RNA 1: B1 RNA 1
RNA 2: B5 RNA 2 with C30A, C41U, A43C, U50C
B12: target 1 del7,del14 (mixed)
RNA 1: B1 RNA 1
RNA 2: GGGAAUGGAUCCACAUCUACGAAUUCGUACCAUAGAGGGUUAUCGCUCACCGAGAUCGGAAGAGCACACGU
B13: target 1 G5A,U10A (mixed)
RNA 1: B1 RNA 1
RNA 2: B5 RNA 2 with C41U, U42A, G47A, U50C
B14: target 1 insG 3' of 11,insA 3' of 4 (mixed)
RNA 1: B1 RNA 1
RNA 2: B1 RNA 2 with U38A, A39G, G41U, U42G, U50A, A51U
B15: target 1 insU 3' of 6,insC 3' of 3 (mixed)
RNA 1: B1 RNA 1
RNA 2: B10 RNA 2 with G47U, U48G, A52C, U53A
B16: target 1 U3A,U8C (mixed)
RNA 1: B1 RNA 1
RNA 2: B5 RNA 2 with C41U, U44C, U49A, U50C
B17: target 1 insA 3' of 19,insU 3' of 9 (mixed)
RNA 1: B1 RNA 1
RNA 2: B2 RNA 2 with G33U, U34A, C45U
B18: target 1 insC 3' of 18,insC 3' of 8 (mixed)
RNA 1: B1 RNA 1
RNA 2: B2 RNA 2 with G33U, U34A, A35C, C45U, U46C
B19: target 1 insC 3' of 20,insU 3' of 18 (mixed)
RNA 1: B1 RNA 1
RNA 2: B7 RNA 2 with U33C, A34U, G35A, A36U, C39G, G40A, A41G
B20: target 1 insU 3' of 20,insG 3' of 1 (mixed)
RNA 1: B1 RNA 1
RNA 2: B1 RNA 2 with A34U, G35A, A36G, G37A, U38G, A51C, C52A, A53G
B21: target 1 insU 3' of 18,insU 3' of 4 (mixed)
RNA 1: B1 RNA 1
RNA 2: B1 RNA 2 with G35U, A36G, G37A, U38G, A51U
B22: target 1 insU 3' of 22,insG 3' of 22 (mixed)
RNA 1: B1 RNA 1
RNA 2: B7 RNA 2 with C31U, A32G, U33C, G35U, C39G, G40A, A41G
B23: target 1 insU 3' of 12,insA 3' of 10 (mixed)
RNA 1: B1 RNA 1
RNA 2: B7 RNA 2 with C39G, A41U, G42U, U44A
B24: target 1 insU 3' of 15,insA 3' of 11 (mixed)
RNA 1: B1 RNA 1
RNA 2: B7 RNA 2 with A38U, C39A, A41G, G42U, U43A
B25: target 1 insU 3' of 20,insC 3' of 1 (mixed)
RNA 1: B1 RNA 1
RNA 2: B1 RNA 2 with A34U, G35A, A36G, G37A, U38G, A51C, C52A, A53C
B26: target 1 insA 3' of 19,insA 3' of 15 (mixed)
RNA 1: B1 RNA 1
RNA 2: B2 RNA 2 with G33U, U34A, G40A, U42G, A44U, C45A
B27: target 1 C4G,A9C (mixed)
RNA 1: B1 RNA 1
RNA 2: B5 RNA 2 with C41U, A43C, C48G, U50C
B28: target 1 C6G,C22U (mixed)
RNA 1: B1 RNA 1
RNA 2: B5 RNA 2 with C30U, C41U, C46G, U50C
B29: target 1 U10C,U11A (mixed)
RNA 1: B1 RNA 1
RNA 2: B5 RNA 2 with C41A, U42C, U50C
B30: target 1 insU 3' of 21,insC 3' of 9 (mixed)
RNA 1: B1 RNA 1
RNA 2: B2 RNA 2 with A32U, G33A
B31: target 1 insU 3' of 20,insU 3' of 1 (mixed)
RNA 1: B1 RNA 1
RNA 2: B1 RNA 2 with A34U, G35A, A36G, G37A, U38G, A51C, C52A, A53U
B32: target 1 complement block 7-12 (mixed)
RNA 1: B1 RNA 1
RNA 2: B5 RNA 2 with G40C, C41A, U42A, A43U, U44A, C45G, U50C
B33: target 1 U8C,G17A (mixed)
RNA 1: B1 RNA 1
RNA 2: B5 RNA 2 with G35A, C41U, U44C, U50C
B34: target 1 insC 3' of 22,insG 3' of 7 (mixed)
RNA 1: B1 RNA 1
RNA 2: B2 RNA 2 with A32C, G33A, C45U, U46C, C47G

biological target: T1, EsCas13d, nuclease-dead; experiment: crRNA (strand 1, pre-loaded); Mg2+; 40 mM Tris-HCl pH 7.5, 150 mM NaCl, 6 mM MgCl2, 1 mM DTT, 0.1% Tween-20, 0.2 mg/ml BSA; 25 C; 10 min per concentration, then washed; conditions: tags: His6-TwinStrep-SUMO cleaved; N-terminal SNAP kept (SNAP-Surface 488); label: 3' end held by stalled T7 RNA polymerase

| Binder | Kd [nM] |
| --- | --- |
| B1 | 8.9 ± 0.6 |
| B2 | ~45 |
| B3 | 30 ± 4 |
| B4 | 20.3 ± 1.2 |
| B5 | 9.5 ± 0.4 |
| B6 | 12.7 ± 0.8 |
| B7 | 28 ± 7 |
| B8 | 10.3 ± 0.5 |
| B9 | 8.4 ± 0.5 |
| B10 | 13.5 ± 0.6 |
| B11 | 47 ± 9 |
| B12 | 18 ± 0.6 |
| B13 | 84 ± 16 |
| B14 | ~63 |
| B15 | 10.5 ± 0.7 |
| B16 | 7.6 ± 0.7 |
| B17 | 32.5 ± 3.1 |

| Binder | Kd [nM] |
| --- | --- |
| B18 | 44.9 ± 3 |
| B19 | 6.12 ± 0.3 |
| B20 | 11.8 ± 1.2 |
| B21 | 20.2 ± 1.3 |
| B22 | 30.3 ± 2.5 |
| B23 | 10.3 ± 0.4 |
| B24 | 27.8 ± 1.7 |
| B25 | 10.1 ± 1 |
| B26 | 16.4 ± 1.8 |
| B27 | 7.2 ± 0.7 |
| B28 | 14 ± 1.1 |
| B29 | 35.7 ± 2.9 |
| B30 | 40.1 ± 2.9 |
| B31 | 14.1 ± 1.4 |
| B32 | 16.6 ± 0.7 |
| B33 | 61 ± 10 |
| B34 | 16.2 ± 3 |
